Measurements: patent US20250250361A1, “ANTI-PLA2G10 ANTIBODIES AND METHODS OF USE” (Yale University, priority 2022, published 2025)
Entries after “also recorded” stand apart in the source; their conditions may differ.

T1: recombinant human PLA2G10 protein (Origene) (human, UniProt O15496 43-165, limits assumed)
T1 construct: also called rhPLA2G10; hPLA2G10
T1 sequence (looked up): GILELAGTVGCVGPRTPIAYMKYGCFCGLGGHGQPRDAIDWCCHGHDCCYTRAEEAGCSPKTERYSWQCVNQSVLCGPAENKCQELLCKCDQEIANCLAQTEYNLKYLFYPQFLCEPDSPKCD

T2: mouse PLA2G10 (Mus musculus, UniProt Q9QXX3)
T2 construct: NP285
T2 sequence (Q9QXX3 29-151): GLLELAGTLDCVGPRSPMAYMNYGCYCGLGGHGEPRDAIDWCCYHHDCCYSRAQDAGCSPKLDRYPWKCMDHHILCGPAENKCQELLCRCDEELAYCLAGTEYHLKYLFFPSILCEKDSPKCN

T3: recombinant human PLA2G10 (rhPLA2G10) (Homo sapiens, UniProt O15496)
T3 sequence (O15496 43-165): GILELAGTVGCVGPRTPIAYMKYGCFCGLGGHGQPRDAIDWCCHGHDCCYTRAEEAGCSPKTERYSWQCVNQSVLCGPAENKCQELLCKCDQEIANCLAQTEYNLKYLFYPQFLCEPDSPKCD

T4: human PLA2G10 (Homo sapiens, UniProt O15496)
T4 construct: purchased Origene
T4 sequence (O15496 43-165): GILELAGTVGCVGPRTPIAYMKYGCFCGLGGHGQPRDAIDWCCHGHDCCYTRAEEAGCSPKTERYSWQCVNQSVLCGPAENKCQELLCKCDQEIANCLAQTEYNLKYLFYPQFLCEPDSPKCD


How the values were obtained:
[1] = test system: T cell migration inhibited by PLA2G10; assay: high throughput T cell mobility assay (TCMA); format: cell-based; conditions: activated primary human T cells from 3 donors, CXCL11 100 ng/ml
Protocol: A high throughput T cell mobility assay (TCMA) was performed to assess the ability of the antibody clones identified in Example 1 and varespladib (a small molecule PLA2G10 inhibitor) to attenuate the inhibitory effect of PLA2G10 on T cell migration. The TCMA was built by modifying Boyden's two-chamber assay in a 96-well format, in which two chambers were separated by a porous membrane. While activated T cells on the upper chamber are largely held by the membrane, exposure to chemokines allows T cells to transpass the membrane and migrate into the lower chamber. In the assay, HEK293T cells 5×10^4 were seeded in a reservoir plate (the lower chambers) arrayed with human secretory molecule encoding genes and transiently transfected using jetPRIME® transfection reagent (Polyplus transfection) as described previously (Yao et al., (2011) Immunity 34:729-740). After overnight incubation, the culture supernatant was replaced by a fresh migration medium (RPMI-1640 containing 1% fetal calf serum from Atlanta Biologicals) and further cultured for 2-3 days. […] At the end of incubation, the upper chamber was removed, and cells in the lower chambers were collected and stained with AF647-labeled anti-human CD45 mAb (clone 2D1, Biolegend) and numerated by the Mirrorball® plate reader (TPP Labtech). […]

[2] = molecular target: T1, recombinant human PLA2G10 protein …; assay: one-way ELISA, plates coated with human PLA2G10 (Origene)
Protocol: (§1) A one-way ELISA was performed to assess antibody binding to PLA2G10. Plates were coated with either human PLA2G10 (Origene) or mouse PLA2G10 (NP285) at 0.5 mg/ml and tested using a PLA2G10 ELISA kit (Elabscience, China) per the manufacturer's instructions. Testing results were normalized as (Vt−Vm)/Vm, where Vt indicates the value calculated according to the standard curve and Vm indicates the mean value of all samples tested on the same ELISA plate.

mouse PLA2G10 = molecular target: T2, mouse PLA2G10; assay: one-way ELISA, antibody binding to mouse PLA2G10; conditions: plates coated with mouse PLA2G10
Protocol: as §1

[3] = test system: mouse PLA2G10 (mPLA2G10-IgFc); assay: sPLA2 assay kit, phospholipase enzymatic activity of mouse PLA2G10; format: biochemical; conditions: mPLA2G10-IgFc 0.32 mg/ml, antibody 1 mg/ml, 37° C. 45 minutes preincubation
Protocol: (§2) The PLA2G10 enzymatic activity for hydrolysis of phospholipids was tested using a sPLA2 assay kit (Cayman Chemical, MI) according to manufacturer's instructions. Briefly, the 1,2-dithio analog of diheptanoyl phosphatidylcholine serves as a substrate for sPLA2s. Upon hydrolysis of the thioester bond at the sn-2 position by PLA2G10, free thiols are detected using DTNB (5,5′-dithio-bis-(2-nitrobenzoic acid)). Recombinant human PLA2G10 protein (rhPLA2G10) (0.5 μg, 2.5 μg/ml final concentration) was incubated with 1C11 antibody (5 μg, 25 μg/ml final concentration) at RT for 30 minutes before testing. Mouse PLA2G10 protein (mPLA2G10-IgFc) (0.32 mg/ml) was incubated with 1C11 or 2B12 antibody (1 mg/ml) at 37° C. for 45 minutes before testing.

MC38-2G10 tumors = assay: MC38-2G10 syngeneic tumor model; format: in vivo; conditions: established tumors in mice, antibodies at 6, 11 and 16 days after inoculation
Protocol: FIG. 4 is a graph showing MC38-2G10 tumor growth in mice over time with anti-PLA2G10 antibody 1C11, anti-PD-1 antibody G4, or combined treatment. Mice were treated with antibodies at 6, 11, and 16 days after tumor inoculation. Representative results of two independent experiments are shown as the mean±SEM. Data were analyzed by two-way ANOVA. * p<0.05, ns=not significant.
To investigate the in vivo effects of anti-PLA2G10 antibody 1C11, a tumor cell line, MC38-2G10, was established by lentivirus-mediated gene transduction to stably express murine PLA2G10 homolog.

[4] = molecular target: T3, recombinant human PLA2G10 (rhPLA2G10); assay: sPLA2 assay kit, phospholipase enzymatic activity of human PLA2G10; format: biochemical; conditions: rhPLA2G10 2.5 μg/ml, antibody 25 μg/ml, RT 30 minutes preincubation
Protocol: as §2

KPC-2G10 tumors = assay: KPC-2G10 syngeneic tumor model; format: in vivo, mice
Protocol: FIG. 5A is a graph showing KPC-2G10 tumor growth in mice over time with anti-PLA2G10 antibody 1C11, anti-PD-1 antibody G4, or combined treatment. Mice were treated with antibodies at 5, 10, and 15 days (+20-day treatment for 1C11) after tumor inoculation. Representative results of two independent experiments are shown as the mean±SEM. Data were analyzed by one-way ANOVA. FIG. 5B is a graph showing quantification of CD3+T cells by immunohistochemistry staining with an anti-CD3 mAb in the KPC-2G10 tumors with or without 1C11 treatment. Cell numbers of five hpfs were randomly picked in each sample for counting and average cell counts were plotted. Box whisker plots depict the mean, the minimum to the maximum value, and each data point was shown. Data were analyzed by the Mann-Whitney test. * p<0.05.
Similar results were also obtained in another syngeneic mouse model using the KPC pancreatic cancer subline, which has moderate TILs when growing subcutaneously (Sun et al., 2021, Sci Transl Med 4, 127ral37) (FIG. 5A).

human PLA2G10 = molecular target: T4, human PLA2G10; assay: one-way ELISA, antibody binding to human PLA2G10; conditions: plates coated with human PLA2G10
Protocol: as §1

HT-29 tumors = assay: HT-29 xenograft tumor model in NSG mice; format: in vivo; conditions: compared to control
Protocol: FIG. 6A is a graph showing HT29 xenograft tumor growth over time with anti-PLA2G10 antibody 1C11 or control treatment. Data were analyzed by one-way ANOVA. * p<0.01. FIG. 6B is a series of pictures showing 1C11 or control antibody treated tumors at day 37. Tumors were surgically removed, formalin-fixed, and sectioned. Tumor tissue sections were studied by immunohistochemistry using an anti-human CD3 mAb. FIG. 6C is a graph showing quantification of CD3+ T cells in control antibody or 1C11 treated tumors (hpf, high power field x400). Cell numbers of ten […] hpfs were randomly picked in each sample for counting and average cell counts were plotted. Box whisker plots depict the mean, the minimum to the maximum value, and each data point was shown. Data were analyzed by the Mann-Whitney test. * p<0.05.
The human colon adenocarcinoma cell line HT-29 secretes PLA2G10 and forms tumors when inoculated in immunodeficient NSG (NOD scid gamma) mice subcutaneously.

[5] = CD3+ T cells by immunohistochemistry

binding result [2]	inhibition of phospholipase enzymatic activity of mouse PLA2G10 [3]	inhibition of phospholipase enzymatic activity of human PLA2G10 [4]	Molecule	reversal of T cell migration inhibited by PLA2G10 [1]	binding to mouse PLA2G10 protein (mouse PLA2G10)	MC38-2G10 tumor growth (MC38-2G10 tumors)	T cell infiltration in KPC-2G10 tumors (KPC-2G10 tumors; [5])	KPC-2G10 tumor growth (KPC-2G10 tumors; syngeneic mice, subcutaneous, antibodies at 5, 10, 15 days)	binding to human PLA2G10 protein (human PLA2G10)	T cell infiltration in HT-29 tumors (HT-29 tumors; [5])	HT-29 xenograft tumor growth (HT-29 tumors; subcutaneous)
			CCc1c(C(=O)C(N)=O)c2c(OCC(=O)O)cccc2n1Cc1ccccc1 [varespladib, reference compound]	reversed							
binds			anti-PLA2G10 antibody 1C11 (mouse IgG2a) (antibody, V domains shown, also called 1C11 antibody; anti-PLA2G10 mAb IC11) VH: QVTLKESGPGILHPSQTLSLTCSFSGFSLNTFGLGVGWVRQPSGKGQEWLAHIWWDDDRYYNPPLKSRLTISKDPSKNQVFLTIPNVNTANTATYYCTQILPHWVAYWGQGTTLTVSS VL: DIQMNQSPSSLSASLGDTITISCHASQNINVWLSWYQQKPGNIPKLLIYKASNLHTGVPSRFSGSGSGTGFTFTISSLQPEDIATYFCQQGQSYPFTFGGGTKLELK								
	inhibited	inhibited	1C11: anti-PLA2G10 antibody clone, VH SEQ ID NO: 1, VL SEQ ID NO: 2; binds human and mouse PLA2G10 (antibody, V domains shown) VH: QVTLKESGPGILHPSQTLSLTCSFSGFSLNTFGLGVGWVRQPSGKGQEWLAHIWWDDDRYYNPPLKSRLTISKDPSKNQVFLTIPNVNTANTATYYCTQILPHWVAYWGQGTTLTVSS VL: DIQMNQSPSSLSASLGDTITISCHASQNINVWLSWYQQKPGNIPKLLIYKASNLHTGVPSRFSGSGSGTGFTFTISSLQPEDIATYFCQQGQSYPFTFGGGTKLELK	reversed	recognized; also recorded: showed binding	did not induce the regression	promoted T cell infiltration	responded partially	recognized; also recorded: showed binding	promoted T cell infiltration	retarded tumor growth
